Reference: US20240132578A1

Assays:
Test in all cases: cell-based or functional assay
[1] = target: HIV-1 Env of isolate 6535.3 (subtype B) (HIV-1)
[2] = target: HIV-1 Env of isolate 92BR020 (subtype B) (HIV-1)
[3] = target: HIV-1 Env of isolate 93TH305 (subtype B) (HIV-1)
[4] = target: HIV-1 Env of isolate APV 13 (subtype B) (HIV-1)
[5] = target: HIV-1 Env of isolate APV 6 (subtype B) (HIV-1)
[6] = target: HIV-1 Env of isolate APV_17 (subtype B) (HIV-1)
[7] = target: HIV-1 Env of isolate MGRM-G-001 (subtype G), on pseudovirus (HIV-1)
[8] = target: HIV-1 Env of isolate MGRM-G-004 (subtype G), on pseudovirus (HIV-1)
[9] = target: HIV-1 Env of isolate MGRM-G-006 (subtype G), on pseudovirus (HIV-1)
[10] = target: HIV-1 Env of isolate MGRM-G-009 (subtype G), on pseudovirus (HIV-1)
[11] = target: HIV-1 Env of isolate MGRM-G-011 (subtype G), on pseudovirus (HIV-1)
[12] = target: HIV-1 Env of isolate MGRM-G-013 (subtype G), on pseudovirus (HIV-1)
[13] = target: HIV-1 Env of isolate MGRM-G-014 (subtype G), on pseudovirus (HIV-1)
[14] = target: HIV-1 Env of isolate MGRM-G-015 (subtype G), on pseudovirus (HIV-1)
[15] = target: HIV-1 Env of isolate MGRM-G-016 (subtype G), on pseudovirus (HIV-1)
[16] = target: HIV-1 Env of isolate MGRM-G-017 (subtype G), on pseudovirus (HIV-1)
[17] = target: HIV-1 Env of isolate MGRM-G-019 (subtype G), on pseudovirus (HIV-1)
[18] = target: HIV-1 Env of isolate MGRM-G-024 (subtype G), on pseudovirus (HIV-1)
[19] = target: HIV-1 Env of isolate MGRM-G-025 (subtype G), on pseudovirus (HIV-1)
[20] = target: HIV-1 Env of isolate MGRM-G-027 (subtype G), on pseudovirus (HIV-1)
[21] = target: HIV-1 Env of isolate MGRM-G-028 (subtype G), on pseudovirus (HIV-1)
[22] = target: HIV-1 JR-CSF Env G471A (HIV-1 JR-CSF) (UniProt P20871)
[23] = target: aMLV envelope, on pseudovirus (negative control)
[24] = target: HIV-1 JR-CSF Env D474A (HIV-1 JR-CSF) (UniProt P20871)
[25] = target: HIV-1 Env of isolate 93MW959 (subtype C) (HIV-1)
[26] = target: HIV-1 Env of isolate 97ZA012 (subtype C) (HIV-1)
[27] = target: HIV-1 Env of isolate 98IN022 (subtype C) (HIV-1)
[28] = target: HIV-1 Env of isolate MGRM-C-001 (subtype C) (HIV-1)
[29] = target: HIV-1 Env of isolate MGRM-C-002 (subtype C) (HIV-1)
[30] = target: HIV-1 Env of isolate MGRM-C-004 (subtype C) (HIV-1)
[31] = target: HIV-1 Env of isolate MGRM-C-005 (subtype C) (HIV-1)
[32] = target: HIV-1 Env of isolate MGRM-C-006 (subtype C) (HIV-1)
[33] = target: HIV-1 Env of isolate MGRM-C-007 (subtype C) (HIV-1)
[34] = target: HIV-1 Env of isolate MGRM-C-008 (subtype C) (HIV-1)
[35] = target: HIV-1 Env of isolate MGRM-C-009 (subtype C) (HIV-1)
[36] = target: HIV-1 Env of isolate MGRM-C-010 (subtype C) (HIV-1)
[37] = target: HIV-1 Env of isolate MGRM-C-012 (subtype C) (HIV-1)
[38] = target: HIV-1 Env of isolate MGRM-C-013 (subtype C) (HIV-1)
[39] = target: HIV-1 Env of isolate MGRM-C-014 (subtype C) (HIV-1)
[40] = target: HIV-1 Env of isolate MGRM-C-015 (subtype C) (HIV-1)
[41] = target: HIV-1 Env of isolate MGRM-C-017 (subtype C) (HIV-1)
[42] = target: HIV-1 Env of isolate MGRM-C-019 (subtype C) (HIV-1)
[43] = target: HIV-1 Env of isolate MGRM-C-020 (subtype C) (HIV-1)
[44] = target: HIV-1 Env of isolate MGRM-C-022 (subtype C) (HIV-1)
[45] = target: HIV-1 Env of isolate MGRM-C-023 (subtype C) (HIV-1)
[46] = target: HIV-1 Env of isolate MGRM-C-024 (subtype C) (HIV-1)
[47] = target: HIV-1 Env of isolate MGRM-C-025 (subtype C) (HIV-1)
[48] = target: HIV-1 Env of isolate MGRM-C-026 (subtype C) (HIV-1)
[49] = target: HIV-1 Env of isolate MGRM-C-027 (subtype C) (HIV-1)
[50] = target: HIV-1 Env of isolate MGRM-C-028 (subtype C) (HIV-1)
[51] = target: HIV-1 JR-CSF Env P470A (HIV-1 JR-CSF) (UniProt P20871)
[52] = target: HIV-1 JR-CSF Env R480A (HIV-1 JR-CSF) (UniProt P20871)

B1: PGT-135 (antibody, V domains shown)
VH: QLQMQESGPGLVKPSETLSLSCTVSGDSIRGGEWGDKDYHWGWVRHSAGKGLEWIGSIHWRGTTHYKESLRRRVSMSIDTSRNWFSLRLASVTAADTAVYFCARHRHHDVFMLVPIAGWFDVWGPGVQVTVSS
VL: EIVMTQSPDTLSVSPGETVTLSCRASQNINKNLAWYQYKPGQSPRLVIFETYSKIAAFPARFVASGSGTEFTLTINNMQSEDVAVYYCQQYEEWPRTFGQGTKVDIK
IC50 (µg/mL), pseudovirus neutralization [1]: > 50 µg/mL | IC50 (µg/mL), pseudovirus neutralization [2]: 0.073 µg/mL | IC50 (µg/mL), pseudovirus neutralization [3]: > 50 µg/mL | IC50 (µg/mL), pseudovirus neutralization [4]: 0.716 µg/mL | IC50 (µg/mL), pseudovirus neutralization [5]: > 50 µg/mL | IC50 (µg/mL), pseudovirus neutralization [6]: > 50 µg/mL | IC50 (µg/mL), neutralization of pseudovirus [7]: 0.393 µg/mL | IC50 (µg/mL), neutralization of pseudovirus [8]: > 50 µg/mL | IC50 (µg/mL), neutralization of pseudovirus [9]: > 50 µg/mL | IC50 (µg/mL), neutralization of pseudovirus [10]: > 50 µg/mL | IC50 (µg/mL), neutralization of pseudovirus [11]: > 50 µg/mL | IC50 (µg/mL), neutralization of pseudovirus [12]: > 50 µg/mL | IC50 (µg/mL), neutralization of pseudovirus [13]: > 50 µg/mL | IC50 (µg/mL), neutralization of pseudovirus [14]: > 50 µg/mL | IC50 (µg/mL), neutralization of pseudovirus [15]: > 50 µg/mL | IC50 (µg/mL), neutralization of pseudovirus [16]: 0.137 µg/mL | IC50 (µg/mL), neutralization of pseudovirus [17]: 0.145 µg/mL | IC50 (µg/mL), neutralization of pseudovirus [18]: 0.062 µg/mL | IC50 (µg/mL), neutralization of pseudovirus [19]: 0.592 µg/mL | IC50 (µg/mL), neutralization of pseudovirus [20]: 0.062 µg/mL | IC50 (µg/mL), neutralization of pseudovirus [21]: > 50 µg/mL | Fold IC50 increase relative to wild-type [22]: 3 fold | IC50 (µg/mL), neutralization of pseudovirus [23]: > 50 µg/mL

B2: PGT-130 (antibody, V domains shown)
VH: QVQLQESGPGLVKPAETLSLTCSVSGESINTGHYYWGWVRQVPGKGLEWIGHIHYTTAVLHNPSLKSRLTIKIYTLRNQITLRLSNVTAADTAVYHCVRSGGDILYYYEWQKPHWFSPWGPGIHVTVSS
VL: QSALTQPPSASGSLGQSVTISCNGTSSDIGGWNFVSWYQQFPGRAPRLIIFEVNKRPSGVPGRFSGSKSGNSASLTVSGLQSDDEGQYFCSSLFGRWDVVFGGGTKLTVL
IC50 (µg/mL), pseudovirus neutralization [1]: 0.031 µg/mL | IC50 (µg/mL), pseudovirus neutralization [2]: 1.4 µg/mL | IC50 (µg/mL), pseudovirus neutralization [3]: 0.021 µg/mL | IC50 (µg/mL), pseudovirus neutralization [4]: 0.052 µg/mL | IC50 (µg/mL), pseudovirus neutralization [5]: > 50 µg/mL | IC50 (µg/mL), pseudovirus neutralization [6]: 10.7 µg/mL | IC50 (µg/mL), neutralization of pseudovirus [7]: 0.0198 µg/mL | IC50 (µg/mL), neutralization of pseudovirus [8]: > 50 µg/mL | IC50 (µg/mL), neutralization of pseudovirus [9]: > 50 µg/mL | IC50 (µg/mL), neutralization of pseudovirus [10]: > 50 µg/mL | IC50 (µg/mL), neutralization of pseudovirus [11]: > 50 µg/mL | IC50 (µg/mL), neutralization of pseudovirus [12]: > 50 µg/mL | IC50 (µg/mL), neutralization of pseudovirus [13]: 2.23 µg/mL | IC50 (µg/mL), neutralization of pseudovirus [14]: > 50 µg/mL | IC50 (µg/mL), neutralization of pseudovirus [15]: > 50 µg/mL | IC50 (µg/mL), neutralization of pseudovirus [16]: > 50 µg/mL | IC50 (µg/mL), neutralization of pseudovirus [17]: 27.9 µg/mL | IC50 (µg/mL), neutralization of pseudovirus [18]: 5.84 µg/mL | IC50 (µg/mL), neutralization of pseudovirus [19]: 8.45 µg/mL | IC50 (µg/mL), neutralization of pseudovirus [20]: 4.14 µg/mL | IC50 (µg/mL), neutralization of pseudovirus [21]: 0.074 µg/mL | Fold IC50 increase relative to wild-type [24]: 2 fold | IC50 (µg/mL), neutralization of pseudovirus [23]: > 50 µg/mL

B3: PGT-126 (antibody, V domains shown)
VH: QPQLQESGPGLVEASETLSLTCTVSGDSTAACDYFWGWVRQPPGKGLEWIGGLSHCAGYYNTGWTYHNPSLKSRLTISLDTPKNQVFLKLNSVTAADTAIYYCARFDGEVLVYHDWPKPAWVDLWGRGTLVTVSS
VL: QSALTQPPSASGSPGQSISISCTGTSNRFVSWYQQHPGKAPKLVIYGVNKRPSGVPDRFSGSKSGNTASLTVSGLQTDDEAVYYCSSLVGNWDVIFGGGTKLTVL
IC50 (µg/mL), pseudovirus neutralization [25]: 9.44 µg/mL | IC50 (µg/mL), pseudovirus neutralization [26]: 0.042 µg/mL | IC50 (µg/mL), pseudovirus neutralization [27]: 0.279 µg/mL | IC50 (µg/mL), pseudovirus neutralization [28]: > 50 µg/mL | IC50 (µg/mL), pseudovirus neutralization [29]: 0.011 µg/mL | IC50 (µg/mL), pseudovirus neutralization [30]: 0.033 µg/mL | IC50 (µg/mL), pseudovirus neutralization [31]: 0.298 µg/mL | IC50 (µg/mL), pseudovirus neutralization [32]: 0.014 µg/mL | IC50 (µg/mL), pseudovirus neutralization [33]: 25.3 µg/mL | IC50 (µg/mL), pseudovirus neutralization [34]: 2.12 µg/mL | IC50 (µg/mL), pseudovirus neutralization [35]: > 50 µg/mL | IC50 (µg/mL), pseudovirus neutralization [36]: > 50 µg/mL | IC50 (µg/mL), pseudovirus neutralization [37]: 0.111 µg/mL | IC50 (µg/mL), pseudovirus neutralization [38]: > 50 µg/mL | IC50 (µg/mL), pseudovirus neutralization [39]: > 50 µg/mL | IC50 (µg/mL), pseudovirus neutralization [40]: 3.14 µg/mL | IC50 (µg/mL), pseudovirus neutralization [41]: 0.17 µg/mL | IC50 (µg/mL), pseudovirus neutralization [42]: 0.005 µg/mL | IC50 (µg/mL), pseudovirus neutralization [43]: > 50 µg/mL | IC50 (µg/mL), pseudovirus neutralization [44]: 0.96 µg/mL | IC50 (µg/mL), pseudovirus neutralization [45]: 0.065 µg/mL | IC50 (µg/mL), pseudovirus neutralization [46]: > 50 µg/mL | IC50 (µg/mL), pseudovirus neutralization [47]: 0.786 µg/mL | IC50 (µg/mL), pseudovirus neutralization [48]: 0.007 µg/mL | IC50 (µg/mL), pseudovirus neutralization [49]: 15.6 µg/mL | IC50 (µg/mL), pseudovirus neutralization [50]: 0.196 µg/mL | IC50 (µg/mL), neutralization of pseudovirus [7]: 0.038 µg/mL | IC50 (µg/mL), neutralization of pseudovirus [8]: > 50 µg/mL | IC50 (µg/mL), neutralization of pseudovirus [9]: > 50 µg/mL | IC50 (µg/mL), neutralization of pseudovirus [10]: > 50 µg/mL | IC50 (µg/mL), neutralization of pseudovirus [11]: 7.32 µg/mL | IC50 (µg/mL), neutralization of pseudovirus [12]: 48.8 µg/mL | IC50 (µg/mL), neutralization of pseudovirus [13]: 0.009 µg/mL | IC50 (µg/mL), neutralization of pseudovirus [14]: > 50 µg/mL | IC50 (µg/mL), neutralization of pseudovirus [15]: > 50 µg/mL | IC50 (µg/mL), neutralization of pseudovirus [16]: > 50 µg/mL | IC50 (µg/mL), neutralization of pseudovirus [17]: 0.018 µg/mL | IC50 (µg/mL), neutralization of pseudovirus [18]: > 50 µg/mL | IC50 (µg/mL), neutralization of pseudovirus [19]: 17.1 µg/mL | IC50 (µg/mL), neutralization of pseudovirus [20]: 0.875 µg/mL | IC50 (µg/mL), neutralization of pseudovirus [21]: 0.012 µg/mL | Fold IC50 increase relative to wild-type [51]: 2.7 fold | Fold IC50 increase relative to wild-type [52]: 1.9 fold | IC50 (µg/mL), neutralization of pseudovirus [23]: > 50 µg/mL
